Measurements from patent publication US20190298743A1, “TREATMENT OF PAIN” (Takeda Pharmaceutical Company Limited, priority 2016, published 2019).

Tests used:
[1] = test system: PAR2; test: BRET receptor trafficking, PAR2-RLuc8 with early endosomal marker Rab5a-venus in HEK293 cells; format: cell-based; conditions: trypsin 10 nM
Protocol: (§1) Bret studies of receptor trafficking were conducted to quantify PAR2 internalisation (RIT-venus) and trafficking to early endosomes (Rab5a-venus) upon stimulation with different agonists.
(§2) After achieving ˜50% confluency within 10 cm dishes HEK293 cells were transiently transfected with 1 μg PAR2-RLuc8 and 4 μg of either RIT-venus or Rab5a-venus using PEI as a transfection agent. 24 hours post transfection, cells were seeded into poly-D-lysine coated 96-well isoplates. […] When used endocytic inhibitors were diluted in 1×HBSS+1% dimethyl sulfoxide (DMSO). Following the replacement of culture media cells were allowed to equilibrate at 37° C. for 30 minutes before the addition of colenterazine H [5 μM]. After a further 5 minute incubation BRET was assessed using a LUMIstar Omega microplate reader (BMG LabTech, Offenburg, Germany), with luminescence being read at 535 nm and 475 nm. A 4 minute baseline was obtained before the addition of vehicle (1×HBSS+/−1% DMSO) or protease, measurements were then continued for a further 30 minutes. BRET ratios were calculated using LUMIstar MARS analysis software and then corrected to baseline and vehicle treatments in Microsoft Excel 2013.

[2] = test system: PAR2; test: FRET biosensors for compartmentalised cAMP, PKC and ERK signals in HEK cells and rat dorsal root ganglia neurons; format: cell-based
Protocol: (§3) The contribution of endocytosis of protease-activated receptor-2 (PAR2) was evaluated for generation of signals in subcellular compartments that mediate protease-evoked sensitization of nociceptors. Bioluminescence resonance energy transfer (BRET) was used to assess the proximity of PAR2 to resident proteins of the plasma membrane (KRas) and endosomes (Rab5a) in HEK cells. […] Förster resonance energy transfer (FRET) biosensors targeted to the plasma membrane, cytosol or nucleus were used to examine the capacity of proteases to generate signals in subcellular compartments of HEK cells and rat dorsal root ganglia neurons. […] Dynamin inhibitor Dyngo4a, Clathrin inhibitor Pitstop2 and dominant negative β-arrestin inhibited trypsin-evoked endocytosis of PAR2, and prevented trypsin-evoked activation of cytosolic cAMP and PKC and nuclear ERK. […] To examine the link between PAR2 endocytosis, compartmentalized signaling and nociceptor sensitization, perforated patch clamp recordings were made from mouse dorsal root ganglia neurons. […] The effects of proteases on excitability were blocked by the PAR2 antagonist GB88. Thus, canonical and biased proteases sensitize nociceptors by distinct mechanisms. For canonical agonists, PAR2 endocytosis generates compartmentalized signals subcellular compartments that underlie sustained excitability of nociceptive neurons. […]

[3] = test system: DRG neurons; test: Perforated patch-clamp excitability (rheobase) of isolated DRG neurons; format: cell-based, mice; conditions: 0 min and 30 min after washing
Protocol: To assess the effects of proteases on excitability of nociceptors, DRG neurons were preincubated with trypsin, cathepsin S, elastase or vehicle (control), washed, and rheobase and action potential discharge at a current of twice rheobase were measured at 0 min or 30 min after washing.
DRG (T9-T13) from C57BL/6 mice were digested by incubation in collagenase (1 mg/ml, Worthington Biochemical, Lakewood, N.J.) and dispase (4 mg/ml, Roche Life Science, Indianapolis, Ind.) for 10 min at 37° C., and were dispersed by trituration with a fire-polished Pasteur pipette. Cells were plated onto coverslips coated with laminin (0.017 mg/ml) and poly-D-lysine (2 mg/ml) in 24-well plates. […]
Neuronal excitability was assessed by perforated patch-clamp recordings with amphotericin B (240 μg/ml) from small diameter neurons (<30 pF capacitance) in current clamp mode at room temperature. Only neurons with resting membrane potentials more negative than −40 mV were analyzed. Changes in excitability were quantified by measuring rheobase (minimum current to fire action potential) and numbers of action potentials discharged at twice rheobase. […]
Results are expressed as mean±SE. […]

[4] = test system: PAR2; test: BRET proximity of PAR2 to KRas (plasma membrane) and Rab5a (endosomes) in HEK cells; format: cell-based; conditions: HEK cells
Protocol: as §3

[5] = Protease-evoked mechanical hyperalgesia, von Frey paw withdrawal; format: in vivo, mice; conditions: ipsilateral paw
Protocol: (§4) Immediately before experiments the mice were acclimatized to the experimental apparatus, room and investigator for 1-2 h on 2 successive days. Mechanical nociceptive responses were evaluated by paw withdrawal to stimulation of the plantar surface of the hind-paw with calibrated von Frey filaments. von Frey scores were measured in triplicate to establish a baseline for each animal on the day before experiments. Paw edema was estimated by measuring the thickness of the hindpaw using digital calipers before and after treatments. Mice were […] with 5% isoflurane for intraplantar injections. Dyngo4a (50 μM), PitStop2 (50 μM) or vehicle (0.2% DMSO in 0.9% NaCl) (all 10 μl) were injected into the left hindpaw. After 30 min, trypsin (10 nM), Cat-S (2.5 μM) or elastase (30 U) (all 10 μl) were injected into the same left hindpaw. von Frey scores (left and right paws) and paw thickness (left paw) were measured hourly for up to 4 h after protease injection. Investigators were blinded to the test agents.

[6] = Protease-evoked paw edema, hindpaw thickness; format: in vivo, mice; conditions: ipsilateral paw
Protocol: as §4

[7] = test system: PAR2; test: BRET receptor trafficking, PAR2-RLuc8 with plasma membrane marker RIT-venus in HEK293 cells; format: cell-based; conditions: trypsin 10 nM
Protocol: as §1, §2

B1: cathepsin S: biased agonist protease of PAR2 (protein, UniProt P25774 115-331, looked up)
Cathepsin S: LPDSVDWREKGCVTEVKYQGSCGACWAFSAVGALEAQLKLKTGKLVSLSAQNLVDCSTEKYGNKGCNGGFMTTAFQYIIDNKGIDSDASYPYKAMDQKCQYDSKYRAATCSKYTELPYGREDVLKEAVANKGPVSVGVDARHPSFFLYRSGVYYEPSCTQNVNHGVLVVGYGDLNGKEYWLVKNSWGHNFGEEGYIRMARNKGNHCGIASFPSYPEI
[1]
  Change in BRET between PAR2 and early endosomal marker upon agonist stimulation: not observed
[2]
  Signals generated by protease in subcellular compartments: only activated cAMP and PKC at the plasma membrane and ERK in the cytosol
[3]
  Effect of protease on excitability (rheobase) of DRG neurons: immediate increase in excitability
[4]
  PAR2 endocytosis induced by agonist: did not induce PAR2 endocytosis
[5]
  Mechanical hyperalgesia after intraplantar injection of protease: caused mechanical hyperalgesia of the ipsilateral paw that was sustained for at least 4 h
[6]
  Edema after intraplantar injection of protease: edema of the ipsilateral paw that was maximal after 4 h
[7]
  Change in BRET between PAR2 and plasma membrane marker upon agonist stimulation: not observed
